This is an account of results in the RNAGym collection of RNA variant scans (doi:10.1093/molbev/msab373).

B1: Azoarcus group I ribozyme (parent)
chain: GUGCCUUGCGCCGGGAAACCACGCAAGGGAUGGUGUCAAAUUCGGCGAAACCUAAGCGCCCGCCCGGGCGUAUGGCAACGCCGAGCCAAGCUUCGGCGCCUGCGCCGAUGAAGGUGUAGAGACUAGACGGCACCCACCUAAGGCAAACGCUAUGGUGAAGGCAUAGUCCAGGGAGUGGCGAAAGUCACACAAACCGG

This data set covers variants of B1. Kind of data set: reverse-splicing fitness (ratio to wild type); higher = more active; in vitro selection; Mg2+ level not given. In short, it runs like this:
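An in vitro group I ribozyme library with randomized positions was T7-transcribed and gel-purified. In triplicate, 10 pmol RNA in EPPS pH 7.5 was reacted with 50 pmoles of a 30-nt RNA substrate for 1 h at 37 °C across several added MgCl2 levels (1–48 mM), then stopped with EDTA. Products were reverse transcribed from a substrate-complementary primer, PCR-amplified and sequenced (HiSeq 4000). Fitness is a variant's read proportion after selection over that before, normalised to wild type.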
With GUGCCUUGCGCCGGGAAACCACGCAAGGGAUGGUGUCAAAUUCGGCGAAACCUAAGCGCCCGCCCGGGCGUAUGGCAACGCAGAGCCAAGCUUCGGCGCCUGCGCCGAUGGAGGUGUAGCGACUAGACGGCACCCACCUAAGGCAAACGAUAUGGUGAAGGCAUAGUCGAGGGAGUGGCGAAAGUCACACAAACCGG, the reverse-splicing fitness was 0.00973. To GUGCCUUGCGCCGGGAAACCACGCAAGGGAUGGUGUCAAAUUCGGCGAAACCUAAGCGCCCGCCCGGGCGUAUGGCAACGCAGAGCCAAGCUUCGGCGCCUGCGCCGAUGGAGGUGUAGCGACUAGACGGCACCCACCUAAGGCAAACGAUAUGGUGAAGGCAUAGUCAAGGGAGUGGCGAAAGUCACACAAACCGG belongs 0.0113; to GUGCCUUGCGCCGGGAAACCACGCAAGGGAUGGUGUCAAAUUCGGCGAAACCUAAGCGCCCGCCCGGGCGUAUGGCAACGCAGAGCCAAGCUUCGGCGCCUGCGCCGAUGGAGGUGUAGCGACUAGACGGCACCCACCUAAGGCAAACGAUAUGGUGAAGGCAUAGUCUAGGGAGUGGCGAAAGUCACACAAACCGG, 0.011; to GUGCCUUGCGCCGGGAAACCACGCAAGGGAUGGUGUCAAAUUCGGCGAAACCUAAGCGCCCGCCCGGGCGUAUGGCAACGCAGAGCCAAGCUUCGGCGCCUGCGCCGAUGGAGGUGUAGCGACUAGACGGCACCCACCUAAGGCUAACGUUAUGGUGAAGGCAUAGUCUAGGGAGGGGCGAAAGUCACACAAACCGG, 0.00546. To GUGCCUUGCGCCGGGAAACCACGCAAGGGAUGGUGUCAAAUUCGGCGAAACCUAAGCGCCCGCCCGGGCGUAUGGCAACGCAGAGCCAAGCUUCGGCGCCUGCGCCGAUGGAGGUGUAGCGACUAGACGGCACCCACCUAAGGCUAACGUUAUGGUGAAGGCAUAGUCUAGGGAGCGGCGAAAGUCACACAAACCGG belongs 0.0124; to GUGCCUUGCGCCGGGAAACCACGCAAGGGAUGGUGUCAAAUUCGGCGAAACCUAAGCGCCCGCCCGGGCGUAUGGCAACGCAGAGCCAAGCUUCGGCGCCUGCGCCGAUGGAGGUGUAGCGACUAGACGGCACCCACCUAAGGCAAACGAUAUGGUGAAGGCAUAGUCAAGGGAGAGGCGAAAGUCACACAAACCGG, 0.0277. To GUGCCUUGCGCCGGGAAACCACGCAAGGGAUGGUGUCAAAUUCGGCGAAACCUAAGCGCCCGCCCGGGCGUAUGGCAACGCAGAGCCAAGCUUCGGCGCCUGCGCCGAUGGAGGUGUAGCGACUAGACGGCACCCACCUAAGGCAAACGAUAUGGUGAAGGCAUAGUCAAGGGAGGGGCGAAAGUCACACAAACCGG belongs 0.00754. Consider GUGCCUUGCGCCGGGAAACCACGCAAGGGAUGGUGUCAAAUUCGGCGAAACCUAAGCGCCCGCCCGGGCGUAUGGCAACGCAGAGCCAAGCUUCGGCGCCUGCGCCGAUGGAGGUGUAGCGACUAGACGGCACCCACCUAAGGCAAACGAUAUGGUGAAGGCAUAGUCAAGGGAGCGGCGAAAGUCACACAAACCGG, for which the reverse-splicing fitness turned out to be 0.0231.

Turning to GUGCCUUGCGCCGGGAAACCACGCAAGGGAUGGUGUCAAAUUCGGCGAAACCUAAGCGCCCGCCCGGGCGUAUGGCAACGCAGAGCCAAGCUUCGGCGCCUGCGCCGAUGGAGGUGUAGCGACUAGACGGCACCCACCUAAGGCUAACGCUAUGGUGAAGGCAUAGUCGAGGGAGAGGCGAAAGUCACACAAACCGG, the reverse-splicing fitness worked out at 0.0135. As for GUGCCUUGCGCCGGGAAACCACGCAAGGGAUGGUGUCAAAUUCGGCGAAACCUAAGCGCCCGCCCGGGCGUAUGGCAACGCAGAGCCAAGCUUCGGCGCCUGCGCCGAUGGAGGUGUAGCGACUAGACGGCACCCACCUAAGGCUAACGCUAUGGUGAAGGCAUAGUCGAGGGAGCGGCGAAAGUCACACAAACCGG, the figure is 0.0172; as for GUGCCUUGCGCCGGGAAACCACGCAAGGGAUGGUGUCAAAUUCGGCGAAACCUAAGCGCCCGCCCGGGCGUAUGGCAACGCAGAGCCAAGCUUCGGCGCCUGCGCCGAUGGAGGUGUAGCGACUAGACGGCACCCACCUAAGGCUAACGCUAUGGUGAAGGCAUAGUCGAGGGAGGGGCGAAAGUCACACAAACCGG, 0.00526; as for GUGCCUUGCGCCGGGAAACCACGCAAGGGAUGGUGUCAAAUUCGGCGAAACCUAAGCGCCCGCCCGGGCGUAUGGCAACGCAGAGCCAAGCUUCGGCGCCUGCGCCGAUGGAGGUGUAGCGACUAGACGGCACCCACCUAAGGCUAACGCUAUGGUGAAGGCAUAGUCAAGGGAGCGGCGAAAGUCACACAAACCGG, 0.0152. As for GUGCCUUGCGCCGGGAAACCACGCAAGGGAUGGUGUCAAAUUCGGCGAAACCUAAGCGCCCGCCCGGGCGUAUGGCAACGCAGAGCCAAGCUUCGGCGCCUGCGCCGAUGGAGGUGUAGCGACUAGACGGCACCCACCUAAGGCUAACGCUAUGGUGAAGGCAUAGUCAAGGGAGAGGCGAAAGUCACACAAACCGG, the figure is 0.0138. As for GUGCCUUGCGCCGGGAAACCACGCAAGGGAUGGUGUCAAAUUCGGCGAAACCUAAGCGCCCGCCCGGGCGUAUGGCAACGCAGAGCCAAGCUUCGGCGCCUGCGCCGAUGGAGGUGUAGCGACUAGACGGCACCCACCUAAGGCUAACGCUAUGGUGAAGGCAUAGUCAAGGGAGGGGCGAAAGUCACACAAACCGG, the figure is 0.00526; as for GUGCCUUGCGCCGGGAAACCACGCAAGGGAUGGUGUCAAAUUCGGCGAAACCUAAGCGCCCGCCCGGGCGUAUGGCAACGCAGAGCCAAGCUUCGGCGCCUGCGCCGAUGGAGGUGUAGCGACUAGACGGCACCCACCUAAGGCUAACGCUAUGGUGAAGGCAUAGUCUAGGGAGCGGCGAAAGUCACACAAACCGG, 0.0131.
